# From paper PMC11524583, “Neurons enhance blood–brain barrier function via upregulating claudin-5 and VE-cadherin expression due to glial cell line-derived neurotrophic factor secretion” (eLife, 2024)
# “And” between values parts separate entries of the source, which are not always exact repeats. Equal entries are not always repeated.
# Key:
# [1] = test system: p-ERK/ERK; assay: Western blot of p-ERK/ERK in hCMEC/D3 cells; format: cell-based, Homo sapiens
# Description: (§1) Whole-cell and tissue lysates, nucleoprotein, and cytoplasmic protein were prepared using RIPA Lysis Buffer (Beyotime, Shanghai, China) as the described method ([Wu et al., 2021]). Proteins were separated through sodium dodecyl sulfate–polyacrylamide gel electrophoresis and transferred onto nitrocellulose or polyvinylidene difluoride membranes. The membranes were blocked with 5% skim milk and incubated with corresponding primary antibodies at 4°C overnight. After being washed with Tris-buffered saline Tween buffer, the membranes were incubated with secondary antibodies (Cell Signaling Technology, MA, USA) at 1:3000 dilution: Anti-mouse IgG, HRP-linked Antibody (#7076), Anti-rabbit IgG, HRP-linked Antibody (#7074). Protein levels were visualized using a highly sensitive ECL western blotting substrate and a gel imaging system (Tanon Science & Technology, Shanghai, China).
# Exogenous and endogenous GDNF in the medium was neutralized with anti-GDNF antibody (#AF-212-NA, R&D system, Minneapolis, MN, USA). 0.25, 0.5, and 1.0 μg/ml anti-GDNF antibody was added into the US-CM or medium containing 200 pg/ml GDNF, and then the medium was preincubated at 4°C for 1 hr. The hCMEC/D3 cells were incubated with 200 pg/ml GDNF or US-CM containing anti-GDNF antibody or not for 6 days, and then cell lysate was collected for western blot. The medium was replaced every 24 hr.
# [2] = test system: FOXO1; assay: Western blot of FOXO1 (p-FOXO1/FOXO1, total, cytoplasmic, nuclear) in hCMEC/D3 cells; format: cell-based, Homo sapiens; conditions: for FOXO1/Lamin B Relative Expression, Mean / FOXO1/Lamin B Relative Expression: Nucleus Protein
# Description: as §1
# (§2) Here, hCMEC/D3 cells were plated in the plates or culture dishes at 6 × 10^4 cells/cm^2 and transfected with 10 nM of negative control or human FOXO1, ETS1, and CDH5 siRNA (Tsingke Biotechnology, Beijing, China) for 12 hr using Lipofectamine 3000 (Invitrogen, Carlsbad, CA, USA) reagent according to the manufacturer’s instructions. Cells were then incubated with a medium containing GDNF for 72 hr.
# The plasmids encoding FOXO1 (EX-Z7404-M02) were constructed by GeneCopoeia (Rockville, MD, USA). The hCMEC/D3 cells were plated in plates or dishes at 6 × 10^4 cells/cm^2. They were subsequently transfected with 1 µg of negative control or plasmids encoding FOXO1 6 hr using Lipofectamine 3000 reagent according to the manufacturer’s instructions. Transfected cells were then incubated with the medium containing GDNF for 72 hr.
# [3] = test system: ETS1; assay: Western blot of total and nuclear ETS1 in hCMEC/D3 cells; format: cell-based, Homo sapiens; conditions: for ETS1/β-actin Relative Expression, Mean / ETS1/Lamin B Relative Expression, Mean: group mean; for ETS1/β-actin Relative Expression / ETS1/Lamin B Relative Expression: individual replicates
# Description: as §1, §2
# [4] = test system: VE-cadherin; assay: Western blot of VE-cadherin in primary rat brain microvascular endothelial cells; format: cell-based; conditions: primary rat BMECs, 200 pg/ml GDNF or US-CM
# Description: Then, hCMEC/D3, U251, and SH-SY5Y cells were cultured in DMEM/F12 containing 10% FBS, 62.5 µg/ml penicillin and 100 µg/ml streptomycin. Cell viability was assessed using a CCK-8 kit (Beyotime Biotechnology, Shanghai, China), and the results were expressed as the fold of control.
# as §1
# [5] = Cytoplasm protein, Figure 4F, group mean, Con = 1.000
# [6] = Cytoplasm protein, Figure 4F, individual replicates, relative to Con
# [7] = Figure 4B, Cytoplasm Protein, group mean, Con = 1.000
# [8] = Figure 4B, Cytoplasm Protein, individual replicates, relative to Con
molecule,measurement,setting,value
"GDNF: glial cell line-derived neurotrophic factor, recombinant protein (R&D system) (protein, UniProt P39905 78-211, looked up) Glial cell line-derived …: SPDKQMAVLPRRERNRQAAAANPENSRGKGRRGQRGKNRGCVLTAIHLNVTDLGLGYETKEELIFRYCSGSCDAAETTYDKILKNLSRNRRLVSDKVGQACCRPIAFDDDLSFLDDNLVYHILRKHSAKRCGCI","p-ERK/ERK Relative Expression, Mean","[1]; mean of 4, relative to Con, GDNF alone, Figure 3E",1.352
same,"p-ERK/ERK Relative Expression, Mean","[1]; relative to Con (mean 1.000), mean of 4, Figure 3B",1.377
same,p-ERK/ERK Relative Expression,"[1]; relative to Con (mean 1.000), single replicates, Figure 3B",1.512 and 1.333 and 1.310 and 1.351
same,p-ERK/ERK Relative Expression,"[1]; single replicate, relative to Con, GDNF alone, Figure 3E",1.315 and 1.511 and 1.307 and 1.277
same,"FOXO1/GAPDH Relative Expression, Mean",[2]; [5],1.482
same,"p-FOXO1/GAPDH Relative Expression, Mean",[2]; [5],1.560
same,FOXO1/GAPDH Relative Expression,[2]; [6],1.349 and 1.335 and 1.673 and 1.570
same,p-FOXO1/GAPDH Relative Expression,[2]; [6],1.317 and 1.387 and 1.877 and 1.660
same,"p-FOXO1/FOXO1 Relative Expression, Mean","[2]; Figure 4A, group mean, Con = 1.000",2.044
same,p-FOXO1/FOXO1 Relative Expression,"[2]; Figure 4A, individual replicates, relative to Con",2.153 and 1.987 and 1.525 and 2.510
same,"FOXO1/β-actin Relative Expression, Mean","[2]; Figure 4A, total FOXO1, group mean, Con = 1.000",0.802
same,FOXO1/β-actin Relative Expression,"[2]; Figure 4A, total FOXO1, individual replicates, relative to Con",0.773 and 0.798 and 1.007 and 0.631
same,"FOXO1/GAPDH Relative Expression, Mean",[2]; [7],1.680
same,"p-FOXO1/GAPDH Relative Expression, Mean",[2]; [7],1.601
same,FOXO1/GAPDH Relative Expression,[2]; [8],1.609 and 1.840 and 1.778 and 1.494
same,p-FOXO1/GAPDH Relative Expression,[2]; [8],1.850 and 1.523 and 1.386 and 1.647
same,"FOXO1/Lamin B Relative Expression, Mean","[2]; Figure 4B, group mean, Con = 1.000",0.556
same,FOXO1/Lamin B Relative Expression,"[2]; Figure 4B, individual replicates, relative to Con",0.674 and 0.519 and 0.531 and 0.499
same,"FOXO1/Lamin B Relative Expression, Mean","[2]; Figure 4F, group mean, Con = 1.000",0.751
same,FOXO1/Lamin B Relative Expression,"[2]; Figure 4F, individual replicates, relative to Con",0.817 and 0.783 and 0.758 and 0.647
same,"p-FOXO1/FOXO1 Relative Expression, Mean","[2]; Whole cell lysate, Figure 4F, group mean, Con = 1.000",1.362
same,p-FOXO1/FOXO1 Relative Expression,"[2]; Whole cell lysate, Figure 4F, individual replicates, relative to Con",1.502 and 1.205 and 1.426 and 1.314
same,FOXO1 phosphorylation (p-FOXO1),"[2]; hCMEC/D3 cells, GDNF or US-CM",significantly enhanced
same,levels of nuclear FOXO1,"[2]; hCMEC/D3 cells, GDNF or US-CM",decreased
same,levels of phosphorylated and unphosphorylated FOXO1 in the cytoplasm,"[2]; hCMEC/D3 cells, GDNF or US-CM",increased
same,"ETS1/β-actin Relative Expression, Mean","[3]; Figure 5A, Con = 1.000",1.877
same,ETS1/β-actin Relative Expression,"[3]; Figure 5A, relative to Con",1.777 and 1.712 and 2.125 and 1.893
same,"ETS1/Lamin B Relative Expression, Mean","[3]; Figure 5B, Con = 1.000",1.560
same,ETS1/Lamin B Relative Expression,"[3]; Figure 5B, relative to Con",1.659 and 1.595 and 1.316 and 1.670
same,"ETS1/β-actin Relative Expression, Mean","[3]; Figure 5C, Con = 1.000, GDNF group of LY and U0 inhibitor experiment",1.287
same,ETS1/β-actin Relative Expression,"[3]; Figure 5C, relative to Con, GDNF group of LY and U0 inhibitor experiment",1.182 and 1.224 and 1.389 and 1.354
same,"ETS1/Lamin B Relative Expression, Mean","[3]; Figure 5D, Con = 1.000",2.084
same,ETS1/Lamin B Relative Expression,"[3]; Figure 5D, relative to Con",1.875 and 2.209 and 2.073 and 2.180
same,"ETS1/β-actin Relative Expression, Mean","[3]; Figure 5E, NC = 1.000",1.499
same,ETS1/β-actin Relative Expression,"[3]; Figure 5E, relative to NC",1.466 and 1.523 and 1.519 and 1.490
same,"ETS1/Lamin B Relative Expression, Mean","[3]; Figure 5F, NC = 1.000",1.528
same,ETS1/Lamin B Relative Expression,"[3]; Figure 5F, relative to NC",1.629 and 1.498 and 1.595 and 1.392
same,nuclear ETS1 expression,"[3]; hCMEC/D3 cells, US-CM or GDNF",significantly increased
same,total ETS1 expression,"[3]; hCMEC/D3 cells, US-CM or GDNF",significantly increased
same,"VE-cadherin/β-actin Relative Expression, Mean",[4]; Con = 1.000 (Figure 2J),1.773
same,VE-cadherin/β-actin Relative Expression,"[4]; relative to Con, single replicate (Figure 2J)",2.095 and 1.692 and 1.731 and 1.576
